Starred links: 1 amine or outer side, 2 acyl side, 3 side chain; linkers in the order of their positions; H or OH if unused. Positions of bridges follow the written chain, without caps; N, C: chain ends. Non-standard residues stand in square brackets, D forms with d. Residues, ends and D or L forms follow the SMILES beside them. Groups on a side chain read outwards from the residue. No end group written: not given here. *: point of attachment. bhGly(phenylbutyl) = 3-((4-phenylbutyl)amino)propanoic acid, O=C(CCN(CCCCc1ccccc1)[*:1])[*:2]; Carnitine = carnitine group on the Lys side chain, C[N+](C)(C)C[C@H](O)CC(=O)*; Dip = N[C@H](C(=O)O)C(c1ccccc1)c1ccccc1; γGlu = O=C(O)[C@H](CCC(=O)[*:2])N[*:1]; NH(4-phenylbutyl) = c1ccc(CCCCN*)cc1; Palmitoyl = CCCCCCCCCCCCCCCC(=O)*; β3hF = N[C@H](CC(=O)O)Cc1ccccc1; DMG_N_2ae = not defined here; NMeK = CN[C@@H](CCCCN)C(=O)O; Isovaleryl = CC(C)CC(=O)*; Orn = NCCC[C@H](N)C(=O)O; Dap = NC[C@H](N)C(=O)O; Ahx = NCCCCCC(=O)O
T1: ferroportin (Homo sapiens, UniProt Q9NP59)
T1 sequence (Q9NP59 1-571): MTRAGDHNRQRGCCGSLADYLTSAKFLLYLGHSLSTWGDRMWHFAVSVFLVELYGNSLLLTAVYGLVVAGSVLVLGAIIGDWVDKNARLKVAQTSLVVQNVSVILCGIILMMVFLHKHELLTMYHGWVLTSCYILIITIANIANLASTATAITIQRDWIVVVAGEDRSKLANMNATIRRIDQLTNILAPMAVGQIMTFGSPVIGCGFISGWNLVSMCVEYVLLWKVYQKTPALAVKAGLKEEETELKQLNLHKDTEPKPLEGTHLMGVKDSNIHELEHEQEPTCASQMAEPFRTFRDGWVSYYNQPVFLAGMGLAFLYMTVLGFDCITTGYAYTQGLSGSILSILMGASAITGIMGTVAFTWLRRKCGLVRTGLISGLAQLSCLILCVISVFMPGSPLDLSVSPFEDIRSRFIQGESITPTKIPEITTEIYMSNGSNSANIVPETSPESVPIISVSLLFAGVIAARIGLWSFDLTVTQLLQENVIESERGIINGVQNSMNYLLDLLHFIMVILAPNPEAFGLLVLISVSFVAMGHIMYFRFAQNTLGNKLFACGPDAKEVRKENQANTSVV

T2: human ferroportin (SLC40A1) fused in frame with GFP, stably expressed in HEK293 cells (human, UniProt Q9NP59 1-571)
T2 sequence (looked up): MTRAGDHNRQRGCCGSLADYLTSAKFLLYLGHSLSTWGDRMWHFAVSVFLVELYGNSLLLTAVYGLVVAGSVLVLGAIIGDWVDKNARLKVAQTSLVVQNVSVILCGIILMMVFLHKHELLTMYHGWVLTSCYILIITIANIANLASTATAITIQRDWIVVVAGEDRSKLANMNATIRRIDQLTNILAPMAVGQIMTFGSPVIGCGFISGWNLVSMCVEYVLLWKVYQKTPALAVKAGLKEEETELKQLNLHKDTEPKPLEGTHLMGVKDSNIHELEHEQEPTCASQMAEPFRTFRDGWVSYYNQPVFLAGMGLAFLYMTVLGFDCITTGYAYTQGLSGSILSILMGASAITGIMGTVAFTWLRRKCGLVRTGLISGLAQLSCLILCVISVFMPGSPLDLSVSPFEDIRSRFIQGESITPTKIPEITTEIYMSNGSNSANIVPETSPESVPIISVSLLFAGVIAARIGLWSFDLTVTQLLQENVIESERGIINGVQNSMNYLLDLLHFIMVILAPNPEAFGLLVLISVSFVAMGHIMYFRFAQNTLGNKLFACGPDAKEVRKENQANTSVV

B1: [Isovaleric Acid]-K-T-H-[Dpa]-P-A-[Lys(Carnitine)]-E-[N-MeLys(Ahx_Palm)]-[Phenylbutyl Amine] (peptide)
peptide: Isovaleryl-KTH[Dip]PAK(Carnitine)E[NMeK]([Ahx-Palmitoyl])-{NH(4-phenylbutyl)}
SMILES: CCCCCCCCCCCCCCCC(=O)NCCCCCC(=O)NCCCC[C@@H](C(=O)NCCCCc1ccccc1)N(C)C(=O)[C@H](CCC(=O)O)NC(=O)[C@H](CCCCNC(=O)C[C@@H](O)C[N+](C)(C)C)NC(=O)[C@H](C)NC(=O)[C@@H]1CCCN1C(=O)[C@@H](NC(=O)[C@H](Cc1c[nH]cn1)NC(=O)[C@@H](NC(=O)[C@H](CCCCN)NC(=O)CC(C)C)[C@@H](C)O)C(c1ccccc1)c1ccccc1
B2: [Isovaleric Acid]-[Dap]-T-H-[Dpa]-P-A-I-[N-MeLys(Ahx_Palm)]-[bhGly(phenylbutyl)] (peptide)
peptide: Isovaleryl-[Dap]TH[Dip]PAI[NMeK]([Ahx-Palmitoyl])[bhGly(phenylbutyl)]
B3: [Isovaleric Acid]-K-T-H-[Dpa]-P-[DMG_N_2ae]-E-[bhPhe]-[Lys(Ahx_Palm)]-NH2 (peptide)
peptide: Isovaleryl-KTH[Dip]P[DMG_N_2ae]E[β3hF]K([Ahx-Palmitoyl])-NH2
modifications: reading uncertain
B4: [Isovaleric Acid]-E-T-H-[Dpa]-P-[DMG_N_2ae]-[N-MeLys(Ahx_Palm)]-[bhPhe]-NH2 (peptide)
peptide: Isovaleryl-ETH[Dip]P[DMG_N_2ae][NMeK]([Ahx-Palmitoyl])[β3hF]-NH2
modifications: reading uncertain
B5: [Isovaleric Acid]-K-T-H-[Dpa]-P-A-I-E-[bhPhe]-[Lys(Ahx_Palm)]-[Lys(Carnitine)]-NH2 (peptide)
peptide: Isovaleryl-KTH[Dip]PAIE[β3hF]K([Ahx-Palmitoyl])K(Carnitine)-NH2
SMILES: CCCCCCCCCCCCCCCC(=O)NCCCCCC(=O)NCCCC[C@H](NC(=O)C[C@H](Cc1ccccc1)NC(=O)[C@H](CCC(=O)O)NC(=O)[C@@H](NC(=O)[C@H](C)NC(=O)[C@@H]1CCCN1C(=O)[C@@H](NC(=O)[C@H](Cc1c[nH]cn1)NC(=O)[C@@H](NC(=O)[C@H](CCCCN)NC(=O)CC(C)C)[C@@H](C)O)C(c1ccccc1)c1ccccc1)[C@@H](C)CC)C(=O)N[C@@H](CCCCNC(=O)C[C@@H](O)C[N+](C)(C)C)C(N)=O
B6: [Isovaleric Acid]-E-T-H-[Dpa]-P-[DMG_N_2ae]-[(D)Lys]-[bhPhe]-[Lys(Ahx_Palm)]-NH2 (peptide)
peptide: XETHXPXXXX
modifications: N-term Isovaleric Acid; Dpa4; DMG_N_2ae6; (D)Lys7; bhPhe8; Lys(Ahx_Palm)9; C-term NH2
B7: [Isovaleric Acid]-E-T-H-[Dpa]-P-[Lys(Ahx_Palm)]-[Phenylbutyl Amine] (peptide)
peptide: XETHXPXX
modifications: N-term Isovaleric Acid; Dpa4; Lys(Ahx_Palm)6; C-term Phenylbutyl Amine
B8: [Isovaleric Acid]-[Orn]-T-H-[Dpa]-P-A-I-[N-MeLys(Ahx_Palm)]-[bhGly(phenylbutyl)] (peptide)
peptide: Isovaleryl-[Orn]TH[Dip]PAI[NMeK]([Ahx-Palmitoyl])[bhGly(phenylbutyl)]

These molecules were tested against T1, ferroportin (assay: T47D cell-based ferroportin internalization assay in presence of mouse serum albumin (MSA), AF647 detection peptide, flow cytometry). Details: second Table 6D, T47D/MSA data; with mouse serum albumin.
Parameters: a human breast carcinoma adherent cell line which endogenously expresses ferroportin; host or cells: T47D
Protocol: The potency of the peptides in causing ferroportin internalization was evaluated in a T47D cell-based assay. […] In this internalization assay, the potency of the test peptides was evaluated in presence of serum albumin which is the main protein component in the blood. T47D cells were maintained in RPMI media (containing required amount of fetal bovine serum) and regularly sub-cultured. […] The test peptide dilution series were allowed to incubate at room temperature for 30 min. Then the media was aspirated from the 96-well cell plate and test peptide dilution series were added. After 1 hr incubation, the media with test peptides was aspirated out and A1F647-conjugated detection peptide was added at fixed concentration of 200 nM. […] The cells were washed again after a 2 hr incubation in preparation for flow cytometry analysis. The Median Fluorescence Intensity (MFI) of the AF647-positive population was measured (after removing dead cells and non-singlets from the analysis). The MFI values were used to generate a dose-response curve and obtain IC50 potencies for the test peptides. The IC50 potencies were calculated by using 4-parameter non-linear fitting function in Graphpad Prism (Table 6D).

In order of rising IC50:
1. CCCCCCCCCCCCCCCC(=O)NCCCCCC(=O)NCCCC[C@H](NC(=O)C[C@H](Cc1ccccc1)NC(=O)[C@H]1CCCCNC(=O)CC[C@H](NC(=O)CC(C)C)C(=O)N[C@@H]([C@@H](C)O)C(=O)N[C@@H](Cc2c[nH]cn2)C(=O)N[C@@H](C(c2ccccc2)c2ccccc2)C(=O)N2CCC[C@H]2C(=O)N[C@@H](C)C(=O)N[C@@H]([C@@H](C)CC)C(=O)N1)C(=O)N[C@@H](CCCNC(=N)N)C(N)=O [compound 56] (Isovaleryl-ETH[Dip]PAI[dK][β3hF]K([Ahx-Palmitoyl])R-NH2; lactam 1-8)  8.9 nM
2. CCCCCCCCCCCCCCCC(=O)NCCCCCC(=O)NCCCC[C@H](NC(=O)[C@@H]1CCCCNC(=O)CC[C@H](NC(=O)CC(C)C)C(=O)N[C@@H]([C@@H](C)O)C(=O)N[C@@H](Cc2c[nH]cn2)C(=O)N[C@@H](C(c2ccccc2)c2ccccc2)C(=O)N2CCC[C@H]2C(=O)N[C@@H](C)C(=O)N[C@@H]([C@@H](C)CC)C(=O)N1)C(N)=O [compound 314] (Isovaleryl-ETH[Dip]PAIKK([Ahx-Palmitoyl])-NH2; lactam 1-8)  10.6 nM
3. CCCCCCCCCCCCCCCC(=O)N[C@@H](CCC(=O)NCCCC[C@H](NC(=O)[C@@H](NC(=O)[C@H](C)NC(=O)[C@@H]1CCCN1C(=O)[C@@H](NC(=O)[C@H](Cc1c[nH]cn1)NC(=O)[C@@H](NC(=O)[C@H](CCC(=O)O)NC(=O)CC(C)C)[C@@H](C)O)C(c1ccccc1)c1ccccc1)[C@@H](C)CC)C(=O)N[C@H](CC(=O)N[C@H](CCCCN)C(N)=O)Cc1ccccc1)C(=O)O [compound 131] (Isovaleryl-ETH[Dip]PAIK([γGlu-Palmitoyl])[β3hF][dK]-NH2)  13.3 nM

The molecules below were run against T2, human ferroportin (SLC40A1) fused in … (assay: cell-based or functional assay). Details: not given.

In order of falling “IC50: FPN internalisation” value:
1. B2  597 nM
2. B8  201 nM
3. B6  35.6 nM
4. B3  13.6 nM
5. B4  10.7 nM
6. B5  10.7 nM
7. B1  5.9 nM
8. B7  5.41 nM
